According to the DeepSol protein solubility set:

Assay: soluble on expression in E. coli; label from the status in PepcDB or PDB records

Soluble on expression in E. coli, not soluble:
MISIVIPLYNQVAYTQLCVQSLRRAGLNGVDVLLIDNGSTDGTAEYLKSCSDLRVIRNRENLGCAGAWNQGVRETTSEWVMILNNDVVVSPGWLDGLLEAAGKEGLDVVSPAIREGEYNYDIEGYSQEFVGRMGDVVRRGVADGICFMVRRRVFEVVGLFDENFRIGQFEDADFFRRARNAGFRLGTTGRSFIHHFGSVTQDAIRKNRPERPYVAENRAYFREKWQLTRGRRLIERWRRKLREFAWQKCERMFHGHTLKEKWLGGRLRYYLEHHHHHH
MEFEGCSGFRQRLVLSTLSGKPVKIRNIRSKDDNPGLRDFEASFIRMLDKLTNGTRIEINQTGTVLFYQPGLLYGGSVEHECNVQRSVGYYLEALLMLVPFMKTPIKAVLKGITNHPTDPSVDLLKVTAVPLMKRFGINGDGLEIKVVKRGMAPGGGGEVHFSCPVSRSMKPVQLTEAGKIKRIRGTAFSVRVSPQMANRIVDSARSILNKFIPDIYIYTDHMKGPNSGKSPGFGLGLVAETLNGVFLGAEVVSTPQGQGEMQLPEDLGRNCAKLLLEEIYRGGCVDSTNQSLALLYMTLGQQDVSKTLLGPLSPYTMDFLRHIRDFFQIMFKIETQKPSEDECKGGEKVLMTCVGAGYNNISKSIK
MDFVTGAVAHRRKFGGGRGQSIAKAVGLKQGVTPKVVDGTAGLGRDAFVLASLGCTVTMVERHPVVAALLEDGLRRAYQDAEIGDWMRERMQLFHGSSLEALAKLEQGVDVVYLDPMYPHRDKSALVKKEMRVFQTLVGADLDADGLLAPAMALASKRVVVKRPDYAEDLAGVKPSMVIETKKNRFDVYVKSAMKLEHHHHHH
MSLRVQLILHLEIPKEVCRSLEVDNYINNSIEINLKCEKKPTLYIKTHSIGSLKSILDDFFRCQNAAMEVYNLIKTYTIRNVTKDDLDDFLELYFKAYRGFDKYYYKKKKWARWYFKWLMKRDEDGFFVCEVNGKPVGFVACDCNWISNIEKREVAEIHEIFVDPDFRGRGIGTALINKAIEYAKKRGRRIVELWVGVENKGAIEFYKRLGFEEKEVVKGWLRMVKRIEGHHHHHH
EVVVVGYQEVRRRDLTGSVAKANMADVLTAPVASFDQALGGRIAGVNVTSGEGMPGGNMSIVIRGNNSLTQENSPLFVIDGFPIEDSSAASTLNPSDIESLDFLKDASATAIYGARGANGVVIITTKKGK
MSEEVIKFTSPRKQVKEEFKLIDTQKIADVRIQWFGKFTKNREKIMFCWKFFPGDKLQNEGIDFLVGHIKAYPHPTYNDFEPFEFDFNVNGAEHKETREYEYLTKNDWCCATYECELTPFRLYGNMFGASTKHDGVLVVEKKKLNVSKAFLSYHSDFFSDLFSREAHSKDIPIEGVTYFEFGLLISCIHPDHTVFPNDETVSKLLSLADRFSMRAVYRMVEHHLLHSSSNMGIREVIKTADQYGMKELMEKSISRITSTEKVMDLIQSAEFPELSAETKAKLMDCMAKMMR
MGSDKIHHHHHHMKILFVAPGWPRGRLWGELGFKFPSLALAALAAVTPPEWDAALCDESRETIDFNAPCDLVAITAMTPQAPRAYEIAAGFRARGKTVVMGGFHASNLPDEALGHVDAVVVGEGELSWPLLLADFQAGRLQRLYRSPGLLPMASIPVARREIFAGKGYLLTNTLQTTRGCPFDCEFCSVTAFYGRKYRERPVEAVLAELETLRKANSFAFFVDDNLVADRRYALPLFRGMKGMGFKWLSHAPIDFAGDEELMRAAGESGCIGMFVGFESLDQEALAAMGKVTNSSSAFLDQARKFRDHGIGILGSFVLGYDGDTPDSFGRILRFCEEARIEAAIFPILTPYPGTAVRRRLEAEGRITSNDWRDYDMGHVTFRPTGMTARELQDGHDWLNRSFYSFGSMWRRIGKLHRSVQVFGPMNLGFRSAIRKSDKTKAS
MYDFVIIGGGIIGMSTAMQLIDVYPDARIALLEKESAPACHQTGHNSGVIHAGVYYTPGSLKAQFCLAGNRATKAFCDQNGIRYDNCGKMLVATSDLEMERMRALWERTAANGIEREWLNADELREREPNITGLGGIFVPSSGIVSYRDVTAAMAKIFQSRGGEIIYNAEVSGLNEHKNGVVIRTRQGGEYEASTLISCSGLMADRLVKMLGLEPGFIICPFRGEYFRLAPEHNQIVNHLIYPIPDPAMPFLGVHLTRMIDGSVTVGPNAVLAFKREGYRKRDFSFSDTLEILGSSGIRRVLQNHLRSGLGEMKNSLCKSGYLRLVQKYCPRLSLSDLQPWPAGVRAQAVSPDGKLIDDFLFVTTPRTIHTCNAPSPAATSAIPIGAHIVSKVQTLLASQSNPGRTLRAARSVDALHAAFNQ
MSLLLSATTSIHDLVTSHPYLIEVLADYAPAFAKLRNPLLRNTLGRVATLQQAADLAGLELTGLMAHLARAIMEHTKEAVTLVPRGAETPAHAVADGDSGCGGCTPRPAEGNTADRATRLATLRALLERLHQGTPLADLKEAFASAVGGISAAEVASLEKELVAGGVAETEIKRLCSLHVDIFREALAPQHVPDMPPGHPVHTYRAENAEATRIADEIISQIDRMRSVPGDTESPLDELAWSFSRRHVADLLADLAHVERHYTRKEMQLFPMLEENGIEAPPKVMWEVHDDIRSLLRKARETVEGPSPVAAATVARDAALAVKDMVDKEETVLFPMALESLTEAQWGRVRHGEDEIGYAWVTPEGEWTPQAADTPESLTMEGAATGTPDRVTLGTGTLTVETLDRMLRTLPLDLSLVDAEDRVAYYTDSTHRIFPRSAGVIGRNVRNCHPPKSVHMVEEILARFKTGERDEAAFWIELGGRFLHIRYFAVRSDEGRYLGCLEVAQDVTDIRALSGQRRLLDWNEGHHHHHH
MSRPQFTSLRLSLLALAVSATLPTFAFATETMTVTATGNARSSFEAPMMVSVIDTSAPENQTATSATDLLRHVPGITLDGTGRTNGQDVNMRGYDHRGVLVLVDGVRQGTDTGHLNGTFLDPALIKRVEIVRGPSALLYGSGALGGVISYDTVDAKDLLQEGQSSGFRVFGTGGTGDHSLGLGASAFGRTENLDGIVAWSSRDRGDLRQSNGETAPNDESINNMLAKGTWQIDSAQSLSGLVRYYNNDAREPKNPQTVGASESSNPMVDRSTIQRDAQLSYKLAPQGNDWLNADAKIYWSEVRINAQNTGSSGEYREQITKGARLENRSTLFADSFASHLLTYGGEYYRQEQHPGGATTGFPQAKIDFSSGWLQDEITLRDLPITLLGGTRYDSYRGSSDGYKDVDADKWSSRAGMTINPTNWLMLFGSYAQAFRAPTMGEMYNDSKHFSIGRFYTNYWVPNPNLRPETNETQEYGFGLRFDDLMLSNDALEFKASYFDTKAKDYISTTVDFAAATTMSYNVPNAKIWGWDVMTKYTTDLFSLDVAYNRTRGKDTDTGEYISSINPDTVTSTLNIPIAHSGFSVGWVGTFADRSTHISSSYSKQPGYGVNDFYVSYQGQQALKGMTTTLVLGNAFDKEYWSPQGIPQDGRNGKIFVSYQW
SNGILREVSGIASNSAFYWTNLTSKPYMGFRSGRNWSMTSGDIRTVRSQVPEVEFISPIMWGARSNKNVVFGDKSETYSIVGAEPDYFEISRVNILQGRMLNAVDDKLRRKVCMIGKEVKEKLFGTTDPIGQVLRVNGLYYRVIGVLEAKSNNVTIGSSPKRSVYLPYSVLQQISNSGNRVENFAVSAYPSADMKQMFKKTETIIRSRNQIAPDDDKALSKFDISAQFQLMNMIFTGINL
QIVPLFFQDVTNQPIEGMKPRSALEVEGRDVFIANGCVGCHSQMIRPLRAETERYGHYSVAGESVWDHPFLWGSKRTGPDLARIGGRYSDEWHRVHLNNPRDLVPASIMPAYPFLAGKHIDSTQTAKKLQVLRTLGTPYSDADITGAAAAVQGKTEMDALVAYLQGLGTLIKSKR

Soluble on expression in E. coli, soluble:
MPTFLECPHCQRLYSKHSLLIHEKNCIESMHKILEQEKLKMQNNQKRGRSKSGRRKKIRPAEMTTTERPRTRSLSRYNHENNGLRICFVCGEQYDDQVIEEHKEKCYGDWSILSKSLSVRFHIHQPKTLNTPSIDGTIDVARENMRAVQSSHNCQIVRCRFCNARISLQHAQSHQCVRFEPTIEFYC
GPGSMPPKNAVKRNQKSSKQRDNFDEAAIDALIMAIEGKAKKGTTKSQLKQKEDKSLSRANGQSYVLSEQMRNALLAQMQQPTAQEEQYVNVPVPLTGEEKGWQEVAPNRYIRYEQFGGSDAEMNFIVNLFTAELTEPYSSFTYQYFVFGWPDLCITAFGVESETKPDNSVVGEKVGAVVSRVTRKGAGMPLRGYVAMFAVVPKFRGYRLGSRLVSLTVELMRAKGCDEVYLETPTSNVRALGLYLNLGFAKTKYLPRYYLDHSDARASEAVAEGCHPKVCPRDCFHGWCGEGVAGTLRVCLE
LRNATQRMFEIDYSRDSFLKDGQPFRYISGSIHYSRVPRFYWKDRLLKMKMAGLNAIQTYVPWNFHEPWPGQYQFSEDHDVEYFLRLAHELGLLVILRPGPYICAEWEMGGLPAWLLEKESILLRSSDPDYLAAVDKWLGVLLPKMKPLLYQNGGPVITVQVENEYGSYFACDFDYLRFLQKRFRHHLGDDVVLFTTDGAHKTFLKCGALQGLYTTVDFGTGSNITDAFLSQRKCEPKGPLINSEFYTGWLDHWGQPHSTIKTEAVASSLYDILARGASVNLYMFIGGTNFAYWNGANSPYAAQPTSYDYDAPLSEAGDLTEKYFALRNIIQKFEKVPEGPIPPSTPKFAYGKVTLEKLKTVGAALDILCPSGPIKSLYPLTFIQVKQHYGFVLYRTTLPQDCSNPAPLSSPLNGVHDRAYVAVDGIPQGVLERNNVITLNITGKAGATLDLLVENMGRVNYGAYINDFKGLVSNLTLSSNILTDWTIFPLDTEDAVRSHLGGWGHRDSGHHDEAWAHNSSNYTLPAFYMGNFSIPSGIPDLPQDTFIQFPGWTKGQVWINGFNLGRYWPARGPQLTLFVPQHILMTSAPNTITVLELEWAPCSSDDPELCAVTFVDRPVIGSSVTYDHPSKPVEKRLMPPPPQKNKDSWLDHV
MAWAPPMAKRRSAPATQAAARTPGWTLGGLATILKGFSGQVQFVPEDYPVWLNRVLAEAQTGRGTVGVLGGLHGDFPPLVSRGLLEPLDGLYARLQDRGFPQAFVELGRMGTPNQQYLPWMQATYVMVARKEALKYLPPGADLNALTYEDLKNWAKAIQEATGQRRLGFPAGPGGLIHRFLQGYLYPSYTGSQVRRFKSPEAEAMWRDFRELWRYVNPRSTAYEFMQEPLLSGEVWIAWDHTARLKDALVQRPQDFVAFPAPAGPKGRGFMPVVAGLAIPKTAPDKRAAEALVDYLTRPEVQLLTLKEVGFFPVVRARYGEDLPEGIRLLAEAVSAQSSAKDALPSLLPVGLGDKGGEFNKVYRDAFTRIVLRGEEIRRALDLEAQNLARILRETGAPCWPPDAPSTGACPVE
MSLQQPLAYRMRPRTIDEVVGQQHLVGEGKIIRRMVDARMLSSMILYGPPGTGKTSIASAIAGSTNYAFRMLNAATDSKKDLQVVAEEAKMSGTVILLLDEVHRLDKTKQDFLLPHLESGRIILIGATTENPYITINPAIRSRTQIFEVKPLTEQDIQLAVEHALRDKERGLGQQAIQLDEDALLHLSRATNGDLRSALNGLELATLSTPSDKEGRIHLTLSIIEECVQRKALTHDKNGDAHYDVISAFQKSIRGSDVDAALHYLARLVEAGDLASICRRLMVIGYEDIGLGNPAAAARTVNAVLAAEKLGLPEARIPLADVVVDLCLSPKSNSAYMALDAALADIREGKAGDVPDHLRDSHYKGAKSLNRGVGYQYPHHFDQAWVNQQYLPDKLKNAQYYQPKDTGKYEQALGQQYYRIKEWKEGHHHHHH
MRTVALGIVAMACLVAIAHGGNFFQDAEVSWGQGRGKIVDGGRGLDLTLDRSSGSGFQSKSEYLFGKIDMQIKLVPGNSAGTVTTFYLSSQGSTHDEIDFEFLGNVTGEPYTLHTNVFTQGQGQREQQFRLWFDPTQSFHTYSIIWNPQHVIFAVDGTPIRDFKNHEARGVAFPKSQPMRVYASLWNADDWATQGGRVKADWSKAPFVASFRDFNADACVWSNGAQRCPVGTMETVAAPAGGRRGGAGGWWNQELSDMSYRRMRWVQRKFMIYNYCTDAKRFPQGTPAECKLR
